Assay [1] deals with T1, ROR1 expressed on cells (A549, MB231, JeKo-1, MEC-ROR1) (UniProt Q01973 30-937). The assay can be described thus: cell-based or functional assay.
Assay [2] has as its target T1, ROR1 expressed on cells (A549, MB231, …). The assay is described as follows: flow cytometry on A549 cells, 1 µg/ml, anti-HA APC. A general note: A flow cytometer gives signals particle by particle.
Assay [3] has the same target. The assay is described as follows: flow cytometry on MB231 cells, 1 µg/ml, anti-HA APC.
Assay [4] shares this target. The assay is described as follows: flow cytometry on JeKo-1 cells, 1 µg/ml, anti-HA APC.
The target of a further assay is T2, recombinant ROR1 protein (UniProt Q01973 30-403, limits assumed).
T2 construct: also called his-tagged ROR1; not shown: his tag
T2 sequence (Q01973 30-403 limits assumed): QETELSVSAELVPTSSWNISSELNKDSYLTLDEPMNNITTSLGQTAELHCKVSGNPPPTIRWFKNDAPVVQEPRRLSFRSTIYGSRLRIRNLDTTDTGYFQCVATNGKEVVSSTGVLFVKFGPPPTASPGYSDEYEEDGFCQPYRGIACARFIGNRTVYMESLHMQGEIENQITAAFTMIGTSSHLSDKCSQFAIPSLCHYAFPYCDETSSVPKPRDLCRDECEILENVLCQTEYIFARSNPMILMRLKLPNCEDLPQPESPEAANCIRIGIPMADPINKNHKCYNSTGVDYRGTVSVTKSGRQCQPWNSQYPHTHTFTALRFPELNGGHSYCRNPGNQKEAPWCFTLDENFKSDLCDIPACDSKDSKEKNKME
The assay is described as follows: ELISA, OD450 (FIG. 6C). In general terms: An ELISA detects its analyte on a solid surface through an enzyme-linked reagent.

T1 sequence (Q01973 30-937): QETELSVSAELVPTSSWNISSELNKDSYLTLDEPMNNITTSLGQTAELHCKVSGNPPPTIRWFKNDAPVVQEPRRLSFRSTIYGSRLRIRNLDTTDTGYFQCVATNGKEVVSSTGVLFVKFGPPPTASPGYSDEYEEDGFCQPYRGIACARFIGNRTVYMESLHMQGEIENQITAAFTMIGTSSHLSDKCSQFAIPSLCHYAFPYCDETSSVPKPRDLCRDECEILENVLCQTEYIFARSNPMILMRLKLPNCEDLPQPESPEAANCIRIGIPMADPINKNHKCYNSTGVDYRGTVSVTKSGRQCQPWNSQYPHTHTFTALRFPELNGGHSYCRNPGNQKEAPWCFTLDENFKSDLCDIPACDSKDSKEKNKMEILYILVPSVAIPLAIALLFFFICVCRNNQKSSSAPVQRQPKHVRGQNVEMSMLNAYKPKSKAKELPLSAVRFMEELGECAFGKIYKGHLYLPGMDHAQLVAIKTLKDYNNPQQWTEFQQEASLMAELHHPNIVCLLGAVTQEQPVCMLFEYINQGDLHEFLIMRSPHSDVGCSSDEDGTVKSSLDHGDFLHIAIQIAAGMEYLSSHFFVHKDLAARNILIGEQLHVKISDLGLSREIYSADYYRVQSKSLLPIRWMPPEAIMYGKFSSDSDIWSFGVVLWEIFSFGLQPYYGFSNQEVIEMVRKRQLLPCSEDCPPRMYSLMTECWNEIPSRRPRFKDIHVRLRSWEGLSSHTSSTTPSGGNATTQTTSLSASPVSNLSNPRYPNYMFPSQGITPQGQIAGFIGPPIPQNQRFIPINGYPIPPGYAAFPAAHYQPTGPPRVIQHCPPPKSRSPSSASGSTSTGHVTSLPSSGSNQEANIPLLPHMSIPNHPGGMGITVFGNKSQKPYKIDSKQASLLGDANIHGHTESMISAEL

B1: hu5-26 ROR1 VHH CAR (other)
chain: QVQLVESGGGLVQPGGSLRLSCAASGFTLDLYAIGWFRQAPGKERGLVSCISSGGSTNYAESVKGRFTISRDNSKNTVYLQMNSLRSEDTAVYYCVRSVPSCGSYYFPPRNMNYWGQGTLVTVSSIEVMYPPPYLDNEKSNGTIIHVKGKHLCPSPLFPGPSKPFWVLVVVGGVLACYSLLVTVAFIIFWVKRGRKKLLYIFKQPFMRPVQTTQEEDGCSCRFPEEEEGGCELRVKFSRSADAPAYKQGQNQLYNELNLGRREEYDVLDKRRGRDPEMGGKPRRKNPQEGLYNELQKDKMAEAYSEIGMKGERRRGKGHDGLYQGLSTATKDTYDALHMQALPPR
As to B1, in assay [1], the “proportion of target cells (surviving, GFP-labeled) after 24 hours, effector-to-target ratio 1:1, MB231” value amounted to 2.96% and the “proportion of target cells (surviving, GFP-labeled) after 24 hours, effector-to-target ratio 1:1, MEC-ROR1” value came out at 1.93%.

B2: 4-92 (VHH)
VHH: QVQLQESGGGLVQPGGSLRLSCAASGFAFSSRAMSWVRQAPGKGLEWVSDINYDGAWTYYADSVKGRFTISRDNAKNTLYLQMNSLKPEDTAVYFCTDPWSIDGWGQGTQVTVSS
notes: Alpaca VHH from the phage library; not shown: one his tag and one HA tag at the C-terminus
B2: the entries for the “proportion of binding cells” value in assay [2], in assay [3] and in assay [4] were 34.6%, 74.3% and 2.96%, respectively.

B3: VHH1 (VHH)
VHH: QVQLVESGGGLVQPGGSLRLSCAASGFTFSDTWMNWVRQAPGKGLYWISAINPDGGNTAYADSVKGRFTISRDNAKNMVYLQMDNLRPEDTAMYYCAKGWVRLPDPDLVRGQGTQVTVSS
notes: Non-specific control VHH; also called non-specific VHH; negative control VHH1
As to B3, the binding result with recombinant ROR1 protein is recorded as “no binding”.

B4: 5-95 (VHH)
VHH: QVQLQESGGGLVQPGGSLRLSCAASGFTFSTYSMTWVRQAPGKGLEWVSDINSGGSVAYYTDSVKGRFTASRDNAKNTLYLQMNSLKPEDTAVYYCYEGGYHGGSPRGHGTQVTVSS
notes: not shown: one his tag and one HA tag at the C-terminus
Turning to B4, the “proportion of binding cells” value is 11.8% in assay [2], 53.3% in assay [3] and 1.18% in assay [4].

B5: VHH2 (VHH)
VHH: QVQLVESGGGLVQAGGSLRLSCAASGSIFSINAMAWYRHRPGMQRERVAAISSGGTTSYADSVKGRFTISRDNARDTLYLQMNSLKPEDTAMYYCAACPGDYTSTICNSDGMDYWGKGTLVTVSS
notes: Non-specific control VHH; also called non-specific VHH; negative control VHH2
Regarding B5, the binding result with recombinant ROR1 protein is “no binding”.

B6: 5-26 (VHH)
VHH: QVQLQESGGGLVQPGGSLRLSCAASGFTLDLYAIGWFRQAPGKERERVSCISSGGSTNYAESVKGRFTISRDNGKNTVYLQMNSLKPEDTAVYYCVRSVPSCGSYYFPPRNMNYWGKGTQVTVSS
notes: as for B2
Take B6: the “proportion of binding cells” value in assay [2] was found to be 97%; in assay [3], 96.8%; in assay [4] it was 99.7%.

B7: 5-09 (VHH)
VHH: QVQLQESGGGLVQPGGSLRLSCAASGFTLDDYAIGWFRQAPGKERERISCISSGGNTNYADSVKGRFTLSRDNAKNTVYLQMYSLKPEDTAVYYCTASIPSCASYYFPPRNMDYWGKGTQVTVSS
notes: also called 5-9; not shown: one his tag and one HA tag at the C-terminus
For B7, the results for the “proportion of binding cells” value in assay [2], in assay [3] and in assay [4] were 18.5%, 61.7% and 1.9%, respectively.

Source of the values: patent publication US20260217821A1 (SPH BIOTHERAPEUTICS SHANGHAI, published 2026).
